Measured values: patent US20050042227A1 (published 2005)

Columns and labels:
[1] = target: T1, recombinant human alpha-L-iduronidase (Aldurazyme) (human, UniProt P35475 27-653, limits assumed); assay: ligand blot, sLRP2 spotted on membrane, detection with antibodies
T1 construct: also called rhIDU; Recombinant human IDU
T1 sequence (looked up): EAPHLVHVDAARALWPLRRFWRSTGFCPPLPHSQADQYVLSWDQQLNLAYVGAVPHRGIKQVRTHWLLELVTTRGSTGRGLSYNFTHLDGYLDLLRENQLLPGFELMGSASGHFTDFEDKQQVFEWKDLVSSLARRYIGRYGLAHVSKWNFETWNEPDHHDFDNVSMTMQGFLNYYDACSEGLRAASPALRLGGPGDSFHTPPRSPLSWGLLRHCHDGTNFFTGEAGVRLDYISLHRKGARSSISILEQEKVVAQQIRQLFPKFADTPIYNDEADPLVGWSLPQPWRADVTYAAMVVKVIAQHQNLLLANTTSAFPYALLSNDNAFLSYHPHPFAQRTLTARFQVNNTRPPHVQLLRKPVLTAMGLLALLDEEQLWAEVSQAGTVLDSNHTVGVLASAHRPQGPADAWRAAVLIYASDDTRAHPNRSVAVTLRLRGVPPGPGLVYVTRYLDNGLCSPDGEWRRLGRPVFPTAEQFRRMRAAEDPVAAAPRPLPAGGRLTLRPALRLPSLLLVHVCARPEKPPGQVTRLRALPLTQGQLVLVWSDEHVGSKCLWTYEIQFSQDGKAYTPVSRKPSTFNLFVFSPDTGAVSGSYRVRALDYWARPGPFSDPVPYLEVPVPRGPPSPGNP
Experimental: Membranes were then mounted in a Bio-Rad dot blot apparatus. The second ligand-binding domain of LRP1 (sLRP2, 1 μg/well) was applied to the membrane by vacuum filtration. The membrane was then cut into sections that were placed in separate wells of a 24-well plate. Membranes were blocked in TBS (20 mM Tris pH 7.4, 150 mM Sodium Chloride) with 5 mM Calcium Chloride and 3% non-fat dry milk for 30 minutes. Ligands were incubated with each membrane spot for 2 hours at room temperature. Individual blots were washed 2×5 minutes each with blocking buffer and then incubated with different antibodies in block buffer for one hour at room temperature to detect binding.

[2] = target: mLRP/LRPTmMegT mini-receptor (MEGt) (UniProt Q07954 3293-4444); assay: cell-based or functional assay
Sequence of mLRP/LRPTmMegT mini-receptor (MEGt) (Q07954 3293-4444): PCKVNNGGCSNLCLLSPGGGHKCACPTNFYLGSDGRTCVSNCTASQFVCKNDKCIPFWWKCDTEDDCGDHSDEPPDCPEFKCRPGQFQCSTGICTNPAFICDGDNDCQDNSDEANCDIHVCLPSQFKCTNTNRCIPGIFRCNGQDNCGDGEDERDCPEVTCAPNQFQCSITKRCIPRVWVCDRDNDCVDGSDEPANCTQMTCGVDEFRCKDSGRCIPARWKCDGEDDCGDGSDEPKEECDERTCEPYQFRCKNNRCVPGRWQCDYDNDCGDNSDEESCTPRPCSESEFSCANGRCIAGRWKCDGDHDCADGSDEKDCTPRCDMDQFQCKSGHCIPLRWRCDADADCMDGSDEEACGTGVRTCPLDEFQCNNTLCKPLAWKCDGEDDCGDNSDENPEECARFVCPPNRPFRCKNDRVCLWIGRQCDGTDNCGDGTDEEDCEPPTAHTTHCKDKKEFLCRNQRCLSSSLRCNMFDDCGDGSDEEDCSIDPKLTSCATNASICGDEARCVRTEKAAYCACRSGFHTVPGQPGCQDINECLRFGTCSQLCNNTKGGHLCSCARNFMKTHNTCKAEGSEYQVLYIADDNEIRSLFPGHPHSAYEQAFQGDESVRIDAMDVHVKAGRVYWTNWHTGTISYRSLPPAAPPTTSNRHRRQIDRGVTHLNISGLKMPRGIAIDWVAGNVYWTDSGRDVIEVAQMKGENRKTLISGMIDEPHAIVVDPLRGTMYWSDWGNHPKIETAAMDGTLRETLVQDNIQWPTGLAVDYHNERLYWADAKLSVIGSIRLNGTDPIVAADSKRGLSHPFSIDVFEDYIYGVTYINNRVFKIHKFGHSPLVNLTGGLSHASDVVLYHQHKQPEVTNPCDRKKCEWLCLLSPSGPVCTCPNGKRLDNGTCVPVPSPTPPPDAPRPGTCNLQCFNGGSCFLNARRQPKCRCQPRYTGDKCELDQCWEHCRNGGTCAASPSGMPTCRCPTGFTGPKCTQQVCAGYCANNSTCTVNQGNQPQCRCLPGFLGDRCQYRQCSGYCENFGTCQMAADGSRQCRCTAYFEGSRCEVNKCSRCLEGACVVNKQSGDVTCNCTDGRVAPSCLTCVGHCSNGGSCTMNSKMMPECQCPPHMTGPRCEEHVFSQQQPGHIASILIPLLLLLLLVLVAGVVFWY

Row | Binder | binding result [1] | ratio of apical-to-basolateral to basolateral-to-apical permeability coefficient of 125I-RAP, MEGt-transfected MDCK [2] [times]
1 | sLRP2, the entire second ligand-binding domain of human LRP1 (receptor, UniProt Q07954 806-1183, looked up, Recombinant soluble fragment made as in Bu and Rennke 1996; also called immobilized LRP) KCRVNNGGCSSLCLATPGSRQCACAEDQVLDADGVTCLANPSYVPPPQCQPGEFACANSRCIQERWKCDGDNDCLDNSDEAPALCHQHTCPSDRFKCENNRCIPNRWLCDGDNDCGNSEDESNATCSARTCPPNQFSCASGRCIPISWTCDLDDDCGDRSDESASCAYPTCFPLTQFTCNNGRCININWRCDNDNDCGDNSDEAGCSHSCSSTQFKCNSGRCIPEHWTCDGDNDCGDYSDETHANCTNQATRPPGGCHTDEFQCRLDGLCIPLRWRCDGDTDCMDSSDEKSCEGVTHVCDPSVKFGCKDSARCISKAWVCDGDNDCEDNSDEENCESLACRPPSHPCANNTSVCLPPDKLCDGNDDCGDGSDEGELCD | no binding | –
2 | receptor-associated protein (RAP) (ligand) YSREKNQPKPSPKRESGEEFRMEKLNQLWEKAQRLHLPPVRLAELHADLKIQERDELAWKKLKLDGLDEDGEKEARLIRNLNVILAKYGLDGKKDARQVTSNSLSGTQEDGLDDPRLEKLWHKAKTSGKFSGEELDKLWREFLHHKEKVHEYNVLLETLSRTEEIHENVISPSDLSDIKGSVLHSRHTELKEKLRSINQGLDRLRRVSHQGYSTEAEFEEPRVIDLWDLAQSANLTDKELEAFREELKHFEAKIEKHNHYQKQLEIAHEKLRHAESVGDGERVSRSREKHALLEGRTKELGYTVKKHLQDLSGRISRARH | – | 460
